Results on 1 molecule are retold here after PMC11023060.

In this data set the target is T1, CbAgoM (delA2;D463R;Y473A;K477C;T491H;T494S;K520G;A542D;A612D;del738-749).
T1 chain: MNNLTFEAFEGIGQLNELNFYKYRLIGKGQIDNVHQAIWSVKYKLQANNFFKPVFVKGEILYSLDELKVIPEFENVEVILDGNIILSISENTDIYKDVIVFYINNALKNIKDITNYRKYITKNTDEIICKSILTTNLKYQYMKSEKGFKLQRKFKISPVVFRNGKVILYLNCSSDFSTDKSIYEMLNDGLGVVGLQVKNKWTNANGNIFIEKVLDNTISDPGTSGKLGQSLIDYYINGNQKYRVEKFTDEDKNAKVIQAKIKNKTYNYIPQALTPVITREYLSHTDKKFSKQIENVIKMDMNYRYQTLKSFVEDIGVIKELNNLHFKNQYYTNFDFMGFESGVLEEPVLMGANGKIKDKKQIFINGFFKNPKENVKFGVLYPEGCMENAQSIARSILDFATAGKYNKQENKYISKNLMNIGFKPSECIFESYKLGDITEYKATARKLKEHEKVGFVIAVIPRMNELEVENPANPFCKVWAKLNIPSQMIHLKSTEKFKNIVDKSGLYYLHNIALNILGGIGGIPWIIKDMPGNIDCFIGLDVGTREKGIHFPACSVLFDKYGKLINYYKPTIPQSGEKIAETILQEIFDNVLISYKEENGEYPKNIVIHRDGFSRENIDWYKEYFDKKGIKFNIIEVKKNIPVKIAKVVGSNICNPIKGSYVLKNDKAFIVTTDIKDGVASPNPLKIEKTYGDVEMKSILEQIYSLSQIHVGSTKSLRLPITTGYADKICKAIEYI
The data set is described as follows: fluorescence polarization.

B1: gDNA 21 nt (ssDNA)
DNA: TGAGGTAGTAGGTTGTATAGT
modifications: 5'-phosphate
Consider B1, for which the binding result is “binds”.
